Assay results reported in US12630600B2 (MEDIMMUNE LIMITED, priority 2022, dated 2026).
Starred links: 1 amine or outer side, 2 acyl side, 3 side chain; linkers in the order of their positions; H or OH if unused. Non-standard residues stand in square brackets, D forms with d. Groups on a side chain read outwards from the residue. No end group written: not given here. *: point of attachment. C20 diacid = O=C(O)CCCCCCCCCCCCCCCCCCC(=O)*; C18 diacid = O=C(O)CCCCCCCCCCCCCCCCC(=O)*; γGlu = O=C(O)[C@H](CCC(=O)[*:2])N[*:1]; αMeF = C[C@](N)(Cc1ccccc1)C(=O)O; AEEA = NCCOCCOCC(=O)O; Aib = CC(C)(N)C(=O)O

B1: Peptide 407 (peptide)
peptide: H[Aib]QGTFTSDVSK[αMeF]LDTK([AEEA-AEEA-γGlu-C20 diacid])RAQDFVRWLEA[Aib]G-OH
modifications: N-terminus assumed
SMILES: CC(C)C[C@H](NC(=O)[C@H](Cc1c[nH]c2ccccc12)NC(=O)[C@H](CCCNC(=N)N)NC(=O)[C@@H](NC(=O)[C@H](Cc1ccccc1)NC(=O)[C@H](CC(=O)O)NC(=O)[C@H](CCC(N)=O)NC(=O)[C@H](C)NC(=O)[C@H](CCCNC(=N)N)NC(=O)[C@H](CCCCNC(=O)COCCOCCNC(=O)COCCOCCNC(=O)CC[C@H](NC(=O)CCCCCCCCCCCCCCCCCCC(=O)O)C(=O)O)NC(=O)[C@@H](NC(=O)[C@H](CC(=O)O)NC(=O)[C@H](CC(C)C)NC(=O)[C@](C)(Cc1ccccc1)NC(=O)[C@H](CCCCN)NC(=O)[C@H](CO)NC(=O)[C@@H](NC(=O)[C@H](CC(=O)O)NC(=O)[C@H](CO)NC(=O)[C@@H](NC(=O)[C@H](Cc1ccccc1)NC(=O)[C@@H](NC(=O)CNC(=O)[C@H](CCC(N)=O)NC(=O)C(C)(C)NC(=O)[C@@H](N)Cc1c[nH]cn1)[C@@H](C)O)[C@@H](C)O)C(C)C)[C@@H](C)O)C(C)C)C(=O)N[C@@H](CCC(=O)O)C(=O)N[C@@H](C)C(=O)NC(C)(C)C(=O)NCC(=O)O
B2: Peptide 408 (peptide)
peptide: H[Aib]QGTFTSDVSK[αMeF]LDTK([AEEA-AEEA-γGlu-γGlu-C20 diacid])RAQDFVRWLEA[Aib]G-OH
modifications: N-terminus assumed
SMILES: CC(C)C[C@H](NC(=O)[C@H](Cc1c[nH]c2ccccc12)NC(=O)[C@H](CCCNC(=N)N)NC(=O)[C@@H](NC(=O)[C@H](Cc1ccccc1)NC(=O)[C@H](CC(=O)O)NC(=O)[C@H](CCC(N)=O)NC(=O)[C@H](C)NC(=O)[C@H](CCCNC(=N)N)NC(=O)[C@H](CCCCNC(=O)COCCOCCNC(=O)COCCOCCNC(=O)CC[C@H](NC(=O)CC[C@H](NC(=O)CCCCCCCCCCCCCCCCCCC(=O)O)C(=O)O)C(=O)O)NC(=O)[C@@H](NC(=O)[C@H](CC(=O)O)NC(=O)[C@H](CC(C)C)NC(=O)[C@](C)(Cc1ccccc1)NC(=O)[C@H](CCCCN)NC(=O)[C@H](CO)NC(=O)[C@@H](NC(=O)[C@H](CC(=O)O)NC(=O)[C@H](CO)NC(=O)[C@@H](NC(=O)[C@H](Cc1ccccc1)NC(=O)[C@@H](NC(=O)CNC(=O)[C@H](CCC(N)=O)NC(=O)C(C)(C)NC(=O)[C@@H](N)Cc1c[nH]cn1)[C@@H](C)O)[C@@H](C)O)C(C)C)[C@@H](C)O)C(C)C)C(=O)N[C@@H](CCC(=O)O)C(=O)N[C@@H](C)C(=O)NC(C)(C)C(=O)NCC(=O)O
B3: Peptide 409 (peptide)
peptide: H[Aib]QGTFTSDVSK[αMeF]LDTK([AEEA-AEEA-γGlu-C18 diacid])RARDFVAWLL[Aib]TE-OH
modifications: N-terminus assumed
SMILES: CC(C)C[C@H](NC(=O)[C@H](Cc1c[nH]c2ccccc12)NC(=O)[C@H](C)NC(=O)[C@@H](NC(=O)[C@H](Cc1ccccc1)NC(=O)[C@H](CC(=O)O)NC(=O)[C@H](CCCNC(=N)N)NC(=O)[C@H](C)NC(=O)[C@H](CCCNC(=N)N)NC(=O)[C@H](CCCCNC(=O)COCCOCCNC(=O)COCCOCCNC(=O)CC[C@H](NC(=O)CCCCCCCCCCCCCCCCC(=O)O)C(=O)O)NC(=O)[C@@H](NC(=O)[C@H](CC(=O)O)NC(=O)[C@H](CC(C)C)NC(=O)[C@](C)(Cc1ccccc1)NC(=O)[C@H](CCCCN)NC(=O)[C@H](CO)NC(=O)[C@@H](NC(=O)[C@H](CC(=O)O)NC(=O)[C@H](CO)NC(=O)[C@@H](NC(=O)[C@H](Cc1ccccc1)NC(=O)[C@@H](NC(=O)CNC(=O)[C@H](CCC(N)=O)NC(=O)C(C)(C)NC(=O)[C@@H](N)Cc1c[nH]cn1)[C@@H](C)O)[C@@H](C)O)C(C)C)[C@@H](C)O)C(C)C)C(=O)N[C@@H](CC(C)C)C(=O)NC(C)(C)C(=O)N[C@H](C(=O)N[C@@H](CCC(=O)O)C(=O)O)[C@@H](C)O
B4: Peptide 410 (peptide)
peptide: H[Aib]QGTFTSDVSK[αMeF]LDTK([AEEA-AEEA-γGlu-C20 diacid])RARDFVAWLL[Aib]TE-OH
modifications: N-terminus assumed
SMILES: CC(C)C[C@H](NC(=O)[C@H](Cc1c[nH]c2ccccc12)NC(=O)[C@H](C)NC(=O)[C@@H](NC(=O)[C@H](Cc1ccccc1)NC(=O)[C@H](CC(=O)O)NC(=O)[C@H](CCCNC(=N)N)NC(=O)[C@H](C)NC(=O)[C@H](CCCNC(=N)N)NC(=O)[C@H](CCCCNC(=O)COCCOCCNC(=O)COCCOCCNC(=O)CC[C@H](NC(=O)CCCCCCCCCCCCCCCCCCC(=O)O)C(=O)O)NC(=O)[C@@H](NC(=O)[C@H](CC(=O)O)NC(=O)[C@H](CC(C)C)NC(=O)[C@](C)(Cc1ccccc1)NC(=O)[C@H](CCCCN)NC(=O)[C@H](CO)NC(=O)[C@@H](NC(=O)[C@H](CC(=O)O)NC(=O)[C@H](CO)NC(=O)[C@@H](NC(=O)[C@H](Cc1ccccc1)NC(=O)[C@@H](NC(=O)CNC(=O)[C@H](CCC(N)=O)NC(=O)C(C)(C)NC(=O)[C@@H](N)Cc1c[nH]cn1)[C@@H](C)O)[C@@H](C)O)C(C)C)[C@@H](C)O)C(C)C)C(=O)N[C@@H](CC(C)C)C(=O)NC(C)(C)C(=O)N[C@H](C(=O)N[C@@H](CCC(=O)O)C(=O)O)[C@@H](C)O
B5: Peptide 411 (peptide)
peptide: H[Aib]QGTFTSDVSK[αMeF]LDTK([AEEA-AEEA-γGlu-C18 diacid])RAQDFVAWLEAGG-OH
modifications: N-terminus assumed
SMILES: CC(C)C[C@H](NC(=O)[C@H](Cc1c[nH]c2ccccc12)NC(=O)[C@H](C)NC(=O)[C@@H](NC(=O)[C@H](Cc1ccccc1)NC(=O)[C@H](CC(=O)O)NC(=O)[C@H](CCC(N)=O)NC(=O)[C@H](C)NC(=O)[C@H](CCCNC(=N)N)NC(=O)[C@H](CCCCNC(=O)COCCOCCNC(=O)COCCOCCNC(=O)CC[C@H](NC(=O)CCCCCCCCCCCCCCCCC(=O)O)C(=O)O)NC(=O)[C@@H](NC(=O)[C@H](CC(=O)O)NC(=O)[C@H](CC(C)C)NC(=O)[C@](C)(Cc1ccccc1)NC(=O)[C@H](CCCCN)NC(=O)[C@H](CO)NC(=O)[C@@H](NC(=O)[C@H](CC(=O)O)NC(=O)[C@H](CO)NC(=O)[C@@H](NC(=O)[C@H](Cc1ccccc1)NC(=O)[C@@H](NC(=O)CNC(=O)[C@H](CCC(N)=O)NC(=O)C(C)(C)NC(=O)[C@@H](N)Cc1c[nH]cn1)[C@@H](C)O)[C@@H](C)O)C(C)C)[C@@H](C)O)C(C)C)C(=O)N[C@@H](CCC(=O)O)C(=O)N[C@@H](C)C(=O)NCC(=O)NCC(=O)O
B6: Peptide 412 (peptide)
peptide: H[Aib]QGTFTSDVSK[αMeF]LDTK([AEEA-AEEA-γGlu-C20 diacid])RAQDFVAWLEAGG-OH
modifications: N-terminus assumed
SMILES: CC(C)C[C@H](NC(=O)[C@H](Cc1c[nH]c2ccccc12)NC(=O)[C@H](C)NC(=O)[C@@H](NC(=O)[C@H](Cc1ccccc1)NC(=O)[C@H](CC(=O)O)NC(=O)[C@H](CCC(N)=O)NC(=O)[C@H](C)NC(=O)[C@H](CCCNC(=N)N)NC(=O)[C@H](CCCCNC(=O)COCCOCCNC(=O)COCCOCCNC(=O)CC[C@H](NC(=O)CCCCCCCCCCCCCCCCCCC(=O)O)C(=O)O)NC(=O)[C@@H](NC(=O)[C@H](CC(=O)O)NC(=O)[C@H](CC(C)C)NC(=O)[C@](C)(Cc1ccccc1)NC(=O)[C@H](CCCCN)NC(=O)[C@H](CO)NC(=O)[C@@H](NC(=O)[C@H](CC(=O)O)NC(=O)[C@H](CO)NC(=O)[C@@H](NC(=O)[C@H](Cc1ccccc1)NC(=O)[C@@H](NC(=O)CNC(=O)[C@H](CCC(N)=O)NC(=O)C(C)(C)NC(=O)[C@@H](N)Cc1c[nH]cn1)[C@@H](C)O)[C@@H](C)O)C(C)C)[C@@H](C)O)C(C)C)C(=O)N[C@@H](CCC(=O)O)C(=O)N[C@@H](C)C(=O)NCC(=O)NCC(=O)O
B7: Peptide 414 (peptide)
peptide: H[Aib]QGTFTSDVSK[αMeF]LDKK([AEEA-AEEA-γGlu-C18 diacid])RARDFVRWLL[Aib]E-OH
modifications: N-terminus assumed
SMILES: CC(C)C[C@H](NC(=O)[C@H](Cc1c[nH]c2ccccc12)NC(=O)[C@H](CCCNC(=N)N)NC(=O)[C@@H](NC(=O)[C@H](Cc1ccccc1)NC(=O)[C@H](CC(=O)O)NC(=O)[C@H](CCCNC(=N)N)NC(=O)[C@H](C)NC(=O)[C@H](CCCNC(=N)N)NC(=O)[C@H](CCCCNC(=O)COCCOCCNC(=O)COCCOCCNC(=O)CC[C@H](NC(=O)CCCCCCCCCCCCCCCCC(=O)O)C(=O)O)NC(=O)[C@H](CCCCN)NC(=O)[C@H](CC(=O)O)NC(=O)[C@H](CC(C)C)NC(=O)[C@](C)(Cc1ccccc1)NC(=O)[C@H](CCCCN)NC(=O)[C@H](CO)NC(=O)[C@@H](NC(=O)[C@H](CC(=O)O)NC(=O)[C@H](CO)NC(=O)[C@@H](NC(=O)[C@H](Cc1ccccc1)NC(=O)[C@@H](NC(=O)CNC(=O)[C@H](CCC(N)=O)NC(=O)C(C)(C)NC(=O)[C@@H](N)Cc1c[nH]cn1)[C@@H](C)O)[C@@H](C)O)C(C)C)C(C)C)C(=O)N[C@@H](CC(C)C)C(=O)NC(C)(C)C(=O)N[C@@H](CCC(=O)O)C(=O)O

target: human GLP-1 receptor (human, UniProt P43220); assay: cell-based or functional assay

Row | Binder | cAMP production EC50
1 | B1 | 0.209 nM
2 | B2 | 0.37 nM
3 | B3 | 0.0227 nM
4 | B4 | 0.078 nM
5 | B5 | 0.0981 nM
6 | B6 | 0.186 nM
7 | H[Aib]QGTFTSDVSK[αMeF]LDTK([AEEA-AEEA-γGlu-γGlu-C20 diacid])RAQDFVAWLEAGG-OH [Peptide 413] | 0.406 nM
8 | B7 | 0.0323 nM

target: human glucagon receptor (human, UniProt P47871); assay: cell-based or functional assay

Row | Binder | cAMP production EC50
9 | B1 | 0.462 nM
10 | B2 | 0.828 nM
11 | B3 | 0.203 nM
12 | B4 | 0.455 nM
13 | B5 | 0.378 nM
14 | B6 | 0.397 nM
15 | H[Aib]QGTFTSDVSK[αMeF]LDTK([AEEA-AEEA-γGlu-γGlu-C20 diacid])RAQDFVAWLEAGG-OH [Peptide 413] | 1.02 nM
16 | B7 | 0.0269 nM
